Assay results as given in patent EP1073891B1, “METHOD OF PREDICTING RECEPTOR MODULATING ACTIVITY” (Duke University, priority 1998, dated 1999).

Molecular target: T1, ERLL (L540A/L541A) (Homo sapiens, UniProt P03372, L540A/L541A)
T1 construct: expressed in transfected cells
T1 sequence (P03372 1-595 L540A/L541A): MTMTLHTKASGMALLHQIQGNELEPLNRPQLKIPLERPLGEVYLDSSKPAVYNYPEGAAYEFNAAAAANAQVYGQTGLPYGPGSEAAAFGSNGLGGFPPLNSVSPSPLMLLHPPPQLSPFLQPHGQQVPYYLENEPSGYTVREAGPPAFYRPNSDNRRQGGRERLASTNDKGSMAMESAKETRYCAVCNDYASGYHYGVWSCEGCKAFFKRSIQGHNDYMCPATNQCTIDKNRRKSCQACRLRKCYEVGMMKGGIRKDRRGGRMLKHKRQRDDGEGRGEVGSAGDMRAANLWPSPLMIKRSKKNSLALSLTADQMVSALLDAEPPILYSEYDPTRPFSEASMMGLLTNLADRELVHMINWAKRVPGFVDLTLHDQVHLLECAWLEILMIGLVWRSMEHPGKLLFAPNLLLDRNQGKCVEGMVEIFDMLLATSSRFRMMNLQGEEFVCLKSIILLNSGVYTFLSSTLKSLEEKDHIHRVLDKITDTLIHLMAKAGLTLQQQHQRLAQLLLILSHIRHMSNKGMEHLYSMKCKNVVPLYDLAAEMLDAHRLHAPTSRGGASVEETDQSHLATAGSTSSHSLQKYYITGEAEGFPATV
Experiment: Mammalian two-hybrid with ERα AF-2 mutants (Examples 4.3, 101.3)
Type: cell-based
Details: mammalian two-hybrid (Fig. 9)
Text: Peptide sequences representing each class was fused to the DNA binding domain (DBD) of the yeast transcription factor Ga14. HepG2 cells were then transiently transfected with expression vectors for ERα-VP16 and the Gal4-peptide fusion proteins. In addition, a luciferase reporter construct under the control of 5 copies of a Ga14 upstream enhancer element was also transfected along with a pCMV-β galactosidase vector to normalize for transfection efficiency. Transfection of the Ga14 DBD alone is included as control. Cells were then induced with various ligands as indicated in the figure and assayed for luciferase activity and β galactosidase activity. Normalized response was obtained by dividing the luciferase activity by the β galactosidase activity.
Three ERα mutants were compared with wild-type ERα. ER-LL was characterized by mutations L540A/L541A. Mutant ER3X was characterized by mutations D538N/E542Q/D545N. Finally, mutant ER-535 STOP was truncated after residue V535. […] Experimental design is the same as in figure 7 except that either (A) ER3X (B) ERLL or (C) ER535-stop was analyzed for binding to conformation sensitive peptides.
To test whether different LXXLL motif peptides interact within the same region of ER, mammalian two hybrid assays were used. Selected peptide sequences and different ER mutants (ER-LL, ER-3X, ER-535 STOP) were expressed as fusion proteins to Gal4DBD and VP16 (TAD), respectively.

| Sequence | interaction with the ERLL mutant receptor |
| --- | --- |
| SSNHQSSRLIELLSR [α/β I] | unable to interact |
| SSLTSRDFGSWYASR [α II] | largely unaffected |
| SSWDMHQFFWEGVSR [α/β III] | loss of the tamoxifen specificity |
| SSPGSREWFKDMLSR [α/β V] | loss of the tamoxifen specificity |
